Experimental data as given in patent publication US5763209.

Tests used:
Experiment in all cases: cell_activity
[1] = test system: GAL4(1-147)-Egr-1(3-281) (Saccharomyces cerevisiae / Mus musculus); conditions: GAL4-site-dependent activation; text says amino acids 1-281
[2] = test system: GAL4(1-147)-Egr-1(420-533) (Saccharomyces cerevisiae / Mus musculus); conditions: GAL4-site-dependent activation
[3] = test system: GAL4(1-147)-Egr-1(240-330) (Saccharomyces cerevisiae / Mus musculus); conditions: GAL4-site-dependent
[4] = test system: GAL4(1-147)-Egr-1(281-314) (Saccharomyces cerevisiae / Mus musculus); conditions: 1 µg effector plasmid

Substance | activity [1] [fold] | activity [2] [fold] | activity (fold repression) [3] | activity (fold repression) [4]
GAL4 reporter, five GAL4 sites with E1b minimal promoter | 100 | 5 | – | –
GAL4 5 tkCAT reporter plasmid | – | – | 10 | > 5
